This is an account of results in US9618524B2, “Method, composition, isolation and identification of a plaque particle and related biomarker” (Plaxgen Inc., priority 2012, dated 2017).

To fix the notation:
B1: Coagulation factor XIII B chain (protein)
chain: EEKPCGFPHVENGRIAQYYYTFKSFYFPMSIDKKLSFFCLAGYTTESGRQEEQTTCTTEGWSPEPRCFKKCTKPDLSNGYISDVKLLYKIQENMRYGCASGYKTTGGKDEEVVQCLSDGWSSQPTCRKEHETCLAPELYNGNYSTTQKTFKVKDKVQYECATGYYTAGGKKTEEVECLTYGWSLTPKCTKLKCSSLRLIENGYFHPVKQTYEEGDVVQFFCHENYYLSGSDLIQCYNFGWYPESPVCEGRRNRCPPPPLPINSKIQTHSTTYRHGEIVHIECELNFEIHGSAEIRCEDGKWTEPPKCIEGQEKVACEEPPFIENGAANLHSKIYYNGDKVTYACKSGYLLHGSNEITCNRGKWTLPPECVENNENCKHPPVVMNGAVADGILASYATGSSVEYRCNEYYLLRGSKISRCEQGKWSSPPVCLEPCTVNVDYMNRNNIEMKWKYEGKVLHGDLIDFVCKQGYDLSPLTPLSELSVQCNRGEVKYPLCTRKESKGMCTSPPLIKHGVIISSTVDTYENGSSVEYRCFDHHFLEGSREAYCLDGMWTTPPLCLEPCTLSFTEMEKNNLLLKWDFDNRPHILHGEYIEFICRGDTYPAELYITGSILRMQCDRGQLKYPRCIPRQSTLSYQEPLRT
B2: Histone H1.3 (protein)
chain: SETAPLAPTIPAPAEKTPVKKKAKKAGATAGKRKASGPPVSELITKAVAASKERSGVSLAALKKALAAAGYDVEKNNSRIKLGLKSLVSKGTLVQTKGTGASGSFKLNKKAASGEGKPKAKKAGAAKPRKPAGAAKKPKKVAGAATPKKSIKKTPKKVKKPATAAGTKKVAKSAKKVKTPQPKKAAKSPAKAKAPKPKAAKPKSGKPKVTKAKKAAPKKK
B3: Isoform 1B of Desmocollin-1 (protein)
chain: RWAPIPASLMENSLGPFPQHVQQIQSDAAQNYTIFYSISGPGVDKEPFNLFYIEKDTGDIFCTRSIDREKYEQFALYGYATTADGYAPEYPLPLIIKIEDDNDNAPYFEHRVTIFTVPENCRSGTSVGKVTATDLDEPDTLHTRLKYKILQQIPDHPKHFSIHPDTGVITTTTPFLDREKCDTYQLIMEVRDMGGQPFGLFNTGTITISLEDENDNPPSFTETSYVTEVEENRIDVEILRMKVQDQDLPNTPHSKAVYKILQGNENGNFIISTDPNTNEGVLCVVKPLNYEVNRQVILQVGVINEAQFSKAASSQTPTMCTTTVTVKIIDSDEGPECHPPVKVIQSQDGFPAGQELLGYKALDPEISSGEGLRYQKLGDEDNWFEINQHTGDLRTLKVLDRESKFVKNNQYNISVVAVDAVGRSCTGTLVVHLDDYNDHAPQIDKEVTICQNNEDFAVLKPVDPDGPENGPPFQFFLDNSASKNWNIEEKDGKTAILRQRQNLDYNYYSVPIQIKDRHGLVATHMLTVRVCDCSTPSECRMKDKSTRDVRPNVILGRWAILAMVLGSVLLLCILFTCFCVTAKRTVKKCFPEDIAQQNLIVSNTEGPGEEVTEANIRLPMQTSNICDTSMSVGTVGGQGIKTQQSFEMVKGGYTLDSNKGGGHQTLESVKGVGQGDTGRYAYTDWQSFTQPRLGEESIRGHTLIKN
B4: Caspase-14 (protein)
chain: MSNPRSLEEEKYDMSGARLALILCVTKAREGSEEDLDALEHMFRQLRFESTMKRDPTAEQFQEELEKFQQAIDSREDPVSCAFVVLMAHGREGFLKGEDGEMVKLENLFEALNNKNCQALRAKPKVYIIQACRGEQRDPGETVGGDEIVMVIKDSPQTIPTYTDALHVYSTVEGYIAYRHDQKGSCFIQTLVDVFTKRKGHILELLTEVTRRMAEAELVQEGKARKTNPEIQSTLRKRLYLQ
B5: Isoform 2 of Spermatid perinuclear RNA-binding protein (protein)
chain: MVKHSTIYPSPEELEAVQNMVSTVECALKHVSDWLDETNKGTKTEGETEVKKDEAGENYSKDQGGRTLCGVMRIGLVAKGLLIKDDMDLELVLMCKDKPTETLLNTVKDNLPIQIQKLTEEKYQVEQCVNEASIIIRNTKEPTLTLKVILTSPLIRDELEKKDGENVSMKDPPDLLDRQKCLNALASLRHAKWFQARANGLKSCVIVLRILRDLCNRVPTWAPLKGWPLELICEKSIGTCNRPLGAGEALRRVMECLASGILLPGGPGLHDPCERDPTDALSYMTIQQKEDITHSAQHALRLSAFGQIYKVLEMDPLPSSKPFQKYSWSVTDKEGAGSSALKRPFEDGLGDDKDPNKKMKRNLRKILDSKAIDLMNALMRLNQIRPGLQYKLLSQSGPVHAPVFTMSVDVDGTTYEASGPSKKTAKLHVAVKVLQAMGYPTGFDADIECMSSDEKSDNESKNETVSSNSSNNTGNSTTETSSTLEVRTQGPILTASGKNPVMELNEKRRGLKYELISETGGSHDKRFVMEVEVDGQKFRGAGPNKKVAKASAALAALEKLFSGPNAANNKKKKIIPQAKGVVNTAVSAAVQAVRGRGRGTLTRGAFVGATAAPGYIAPGYGTPYGYSTAAPAYGLPKRMVLLPVMKFPTYPVPHYSFF
B6: Isoform 2 of Arginase-1 (protein)
chain: MSAKSRTIGIIGAPFSKGQPRGGVEEGPTVLRKAGLLEKLKEQVTQNFLILECDVKDYGDLPFADIPNDSPFQIVKNPRSVGKASEQLAGKVAEVKKNGRISLVLGGDHSLAIGSISGHARVHPDLGVIWVDAHTDINTPLTTTSGNLHGQPVSFLLKELKGKIPDVPGFSWVTPCISAKDIVYIGLRDVDPGEHYILKTLGIKYFSMTEVDRLGIGKVMEETLSYLLGRKKRPIHLSFDVDGLDPSFTPATGTPVVGGLTYREGLYITEEIYKTGLLSGLDIMEVNPSLGKTPEEVTRTVNTAVAITLACFGLAREGNHKPIDYLNPPK

In one experiment the target is T1, Abeta-42 plaque particles (Homo sapiens, UniProt P05067).
T1 construct: Abeta 1-42
The experiment is described as follows: Mass spectroscopy proteomics, semi-quantitative binding affinity of serum proteins (plaqueproteome, Table 2). The settings on record: higher number = stronger affinity. In outline:
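AD patient serum or plasma (50% in PBS) was incubated with Abeta-42 aggregates (30 μg) for 1 h at 37 °C, then stained with Thioflavin S for 30 min. Labeled particles were FACS-sorted, trypsin/Lys-C digested overnight and analyzed by MS/MS. Sequest searched human UniProt; Scaffold/Protein Prophet validated the identifications.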
With B1, the “Semi-quantitative analysis of proteins binding to different plaque particles: Abeta-42” value came to 0.
For B2, the “Semi-quantitative analysis of proteins binding to different plaque particles: Abeta-42” value turned out to be 2.
With B3, the “Semi-quantitative analysis of proteins binding to different plaque particles: Abeta-42” value is 4.
Turning to B4, the “Semi-quantitative analysis of proteins binding to different plaque particles: Abeta-42” value was 5.
In the case of B5, the “Semi-quantitative analysis of proteins binding to different plaque particles: Abeta-42” value was 2.
The same measure, in the same setting: the value for B6 was 2.

The target of the next experiment is T2, alpha-synuclein plaque particles (Homo sapiens, UniProt P37840).
T2 construct: 140 amino acids polypeptide
Described as above. The following applies: higher number = stronger affinity. An outline of the steps: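 AD-subject plasma or serum (800 μL of 50%) mixed with 30 μg preformed alpha-synuclein aggregates for 1 h at 37 °C; Thioflavin S-positive particles isolated by flow sorting. After reduction, acrylamide alkylation and overnight tryptic digestion, serum proteins identified by MS/MS with Sequest and Scaffold.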
On to B1, for which the “Semi-quantitative analysis of proteins binding to different plaque particles: Synuclein” value is listed as 0.
Take B2: the “Semi-quantitative analysis of proteins binding to different plaque particles: Synuclein” value is recorded as 0.
With B3, the “Semi-quantitative analysis of proteins binding to different plaque particles: Synuclein” value came out at 0.
As to B4, the “Semi-quantitative analysis of proteins binding to different plaque particles: Synuclein” value amounted to 0.
B5: the “Semi-quantitative analysis of proteins binding to different plaque particles: Synuclein” value stood at 0.
Turning to B6, the “Semi-quantitative analysis of proteins binding to different plaque particles: Synuclein” value came out at 0.

The next experiment has as its system Tau plaque particles. Described as above. Further details: species or system human. The following applies: higher number = stronger affinity. An outline of the steps:
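Serum or plasma proteins captured on Thioflavin S-labelled Tau plaque particles (Tau-74, Tau-275 oligomers preformed in PBS at 37° C for 2 h; 1 h co-incubation at 37° C) were isolated by FACS sorting, then tryptically digested and identified by MS/MS (Sequest, human UniProt, strict trypsin).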
For B1, the “Semi-quantitative analysis of proteins binding to different plaque particles: Tau” value amounted to 0.
With B2, the “Semi-quantitative analysis of proteins binding to different plaque particles: Tau” value was found to be 0.
Same read-out and setting: the value for B3 was 0.
Still for that read-out and setting: for B4 the value was 0.
Regarding B5, the “Semi-quantitative analysis of proteins binding to different plaque particles: Tau” value is given as 0.
As to B6, the “Semi-quantitative analysis of proteins binding to different plaque particles: Tau” value is given as 0.

Another experiment deals with Low density cholesterol (Chl small) plaque particles. Described as above. Further details: species or system human. The settings on record: higher number = stronger affinity. An outline of the steps:
(§1)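 Serum or plasma from atherosclerotic subjects, as 50% serum, was incubated with 30 μg cholesterol aggregates for 1 h at 37 °C. High- and low-density particles were then flow-sorted, trypsin-digested and analysed by MS/MS. Proteins were identified by Sequest search against human UniProt and validated with Protein Prophet.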
Consider B1, for which the “Semi-quantitative analysis of proteins binding to different plaque particles: Chl small” value stood at 1.
Same read-out and setting: for B2 the value was 0.
Same read-out and setting: the value for B3 was 0; that for B4 was 0.
Turning to B5, the “Semi-quantitative analysis of proteins binding to different plaque particles: Chl small” value turned out to be 0.
Same read-out and setting: for B6 the value was 0.

Another experiment concerns High Density cholesterol (Chl Large) plaque particles. The experiment is described as above. Further details: species or system human. The following applies: higher number = stronger affinity. An outline of the steps: as §1
As to B1, the “Semi-quantitative analysis of proteins binding to different plaque particles: Chl Large” value is listed as 0.
On to B2, for which the “Semi-quantitative analysis of proteins binding to different plaque particles: Chl Large” value is reported as 0.
As for B3, the “Semi-quantitative analysis of proteins binding to different plaque particles: Chl Large” value was determined as 0.
As for B4, the “Semi-quantitative analysis of proteins binding to different plaque particles: Chl Large” value turned out to be 0.
Same read-out and setting: for B5 the value was 0.
Regarding B6, the “Semi-quantitative analysis of proteins binding to different plaque particles: Chl Large” value is on record as 0.
